Measurements from patent publication US20030105000A1 (UNIVERSITY OF VERMONT AND STATE AGRICULTURAL COLLEGE, published 2003).
Positions of bridges follow the written chain, without caps; N, C: chain ends. No end group written: not given here.

What was measured:
[1] = target: T1, Grb7-SH2 domain-GST (SH2 domain of human Grb7 containing a GST fusion tag) (human, UniProt Q14451 415-532); test: assay not described (sentence of Example 3)
T1 construct: domain: SH2 domain; Purified from E. coli; also called Grb7-SH2-GST; not shown: glutathione-S-transferase (GST) fusion tag

[2] = target: T1, Grb7-SH2 domain-GST (SH2 domain of …); test: competition ELISA on Grb7-SH2-GST; competitor G7-8NA peptide-phage (FIG. 5B)
Text: (§1) Unbound phage were washed away with Tween-TBS buffer and bound phage were detected with anti-M13-horseradish peroxidase (Amersham-Pharmacia Biotech) and ABTS substrate (Calbiochem). […] Plates were read at OD₄₀₅.

[3] = target: T2, Grb2-GST (UniProt P62993 1-217); test: phage ELISA (FIG. 4)
T2 construct: also called full length Grb2; not shown: glutathione-S-transferase (GST) fusion partner

[4] = target: T3, Grb14-SH2-GST (UniProt Q14449 423-540); test: phage ELISA (FIG. 4)
T3 construct: domain: SH2 domain; also called SH2 domain of Grb14; not shown: glutathione-S-transferase (GST) fusion partner
T3 sequence (looked up): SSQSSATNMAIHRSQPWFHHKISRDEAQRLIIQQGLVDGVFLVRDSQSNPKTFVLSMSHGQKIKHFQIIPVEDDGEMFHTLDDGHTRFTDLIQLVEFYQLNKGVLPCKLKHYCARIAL

[5] = target: T1, Grb7-SH2 domain-GST (SH2 domain of …); test: phage ELISA (legend of FIG. 1)
Text: (§2) The overall methodology of an ELISA is well established. […] Non-specific binding was blocked by casein. Binding of phage was detected using an anti-phage antibody conjugated to horseradish peroxidase.

[6] = target: T4, BSA (UniProt P02769 25-607); test: phage ELISA on coated protein (FIG. 1)
T4 construct: also called bovine serum albumin
Text: as §2

[7] = target: T5, GST alone (UniProt P08515 1-218 = GST); test: phage ELISA on coated protein (FIG. 1)
T5 construct: Control protein coated on the ELISA plate; also called fusion protein (GST)
Text: as §2

[8] = target: T1, Grb7-SH2 domain-GST (SH2 domain of …); test: phage ELISA on coated Grb7-SH2 domain-GST, anti-phage-HRP (FIG. 1)
Text: as §2

[9] = target: T2, Grb2-GST; test: phage ELISA on coated protein (FIG. 1)
Text: as §2

[10] = target: T1, Grb7-SH2 domain-GST (SH2 domain of …); test: competition ELISA on Grb7-SH2-GST; competitor G7-18 peptide-phage (FIG. 5A)
Text: as §1

[11] = target: T1, Grb7-SH2 domain-GST (SH2 domain of …); test: competition ELISA on Grb7-SH2-GST; free peptide 1, 10, 100 uM; competitor G7-18 peptide-phage (FIG. 5A)
Text: as §1

[12] = target: T2, Grb2-GST; test: competition ELISA against Grb2-binding peptide-phage (data not shown)

T4 sequence (P02769 25-607 limits assumed): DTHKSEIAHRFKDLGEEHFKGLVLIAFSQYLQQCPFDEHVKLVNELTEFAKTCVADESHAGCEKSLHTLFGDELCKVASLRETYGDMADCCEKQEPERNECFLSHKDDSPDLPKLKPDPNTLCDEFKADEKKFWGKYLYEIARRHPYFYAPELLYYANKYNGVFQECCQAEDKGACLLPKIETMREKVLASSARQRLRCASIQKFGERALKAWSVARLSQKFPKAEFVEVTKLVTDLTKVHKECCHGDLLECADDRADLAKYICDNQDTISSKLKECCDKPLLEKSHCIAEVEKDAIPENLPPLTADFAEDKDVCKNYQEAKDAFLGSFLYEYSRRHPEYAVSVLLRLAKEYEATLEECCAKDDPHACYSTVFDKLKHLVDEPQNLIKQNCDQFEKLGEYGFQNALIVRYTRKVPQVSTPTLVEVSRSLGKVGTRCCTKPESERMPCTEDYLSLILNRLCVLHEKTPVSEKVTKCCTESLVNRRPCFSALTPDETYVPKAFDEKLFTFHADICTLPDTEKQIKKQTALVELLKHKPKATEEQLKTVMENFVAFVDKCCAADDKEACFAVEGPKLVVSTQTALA
T5 sequence (P08515 whole entry, the tested form may be a part): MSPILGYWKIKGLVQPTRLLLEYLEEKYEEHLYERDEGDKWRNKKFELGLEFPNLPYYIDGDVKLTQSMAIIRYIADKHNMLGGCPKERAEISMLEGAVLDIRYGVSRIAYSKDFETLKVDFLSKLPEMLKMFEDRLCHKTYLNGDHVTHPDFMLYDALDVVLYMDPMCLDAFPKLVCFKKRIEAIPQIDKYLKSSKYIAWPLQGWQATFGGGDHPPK
T1 sequence (Q14451 415-532): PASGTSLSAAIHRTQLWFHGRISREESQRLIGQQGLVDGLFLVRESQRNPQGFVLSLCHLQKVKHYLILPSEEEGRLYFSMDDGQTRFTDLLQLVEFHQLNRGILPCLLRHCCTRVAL
T2 sequence (P62993 whole entry, the tested form may be a part): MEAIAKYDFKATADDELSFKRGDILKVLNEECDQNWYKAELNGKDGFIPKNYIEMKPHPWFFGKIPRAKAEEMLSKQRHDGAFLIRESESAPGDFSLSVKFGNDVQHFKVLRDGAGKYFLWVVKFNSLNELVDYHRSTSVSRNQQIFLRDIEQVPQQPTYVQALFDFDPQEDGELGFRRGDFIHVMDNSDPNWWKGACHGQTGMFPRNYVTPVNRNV

Binder | binding result [1] | binding result [4] | binding result [6] | binding result [7] | binding result [8] | binding result [9] | other results
CGYIGYDNIFEC (disulfide 1-12 (inferred)) [G7BP-7NA] | binds | – | – | – | – | – | –
CKYLYYDNDYLC (disulfide 1-12 (inferred)) [G7BP-1NA] | binds | – | – | – | – | – | –
VFWGYANDWLC (non-phosphorylated; thioether bond between the ends of the peptide (N-terminal cysteine replaced by another functional group), Lacks the arms; also called G7BP-4NATE) [G7-8NATE free synthetic peptide] | – | – | – | – | – | – | binding result [2]: binds
KLFWCTYEDYANEWPCPGYS (peptide, not shown: large carriers, disulfide 5-16; also: displayed on phage gene III protein, Tested as a phage clone displaying the peptide on the gene III protein) [G7BP-2 peptide-phage clone] | – | no binding | no binding | no binding | – | – | binding result [3]: no binding; binding result [5]: binds
RTSPCGYIGYDNIFECTYLG (peptide, not shown: large carriers, disulfide 5-16; also: displayed on phage gene III protein, Tested as a phage clone displaying the peptide on the gene III protein) [G7BP-7 peptide-phage clone] | – | no binding | no binding | no binding | binds | no binding | –
NVSECIYIHYDNWSLCGVEV (peptide, not shown: large carriers, disulfide 5-16; also: displayed on phage gene III protein, Tested as a phage clone displaying the peptide on the gene III protein) [G7BP-3 peptide-phage clone] | – | no binding | no binding | no binding | binds | no binding | –
FCAVCNEELYENCGGCSVGK (peptide, not shown: large carriers, disulfide 5-16; cysteine pairing not given here; also: displayed on phage gene III protein, Tested as a phage clone displaying the peptide on the gene III protein) [G7BP-6 peptide-phage clone] | – | no binding | no binding | no binding | binds | no binding | –
WFEGYDNTFPC (non-phosphorylated; thioether bond between the ends of the peptide (N-terminal cysteine replaced by another functional group), Lacks the 4-residue arms on both sides; cyclised by a thioether; also called G7BP-5NATE; G7-18NATE (thioether)) [G7-18NATE free synthetic peptide] | – | – | – | – | – | – | binding result [10]: binds
CWFEGYDNTFPC (also called G7-18NA) [G7BP-5NA] | binds | – | – | – | – | – | –
CIYIHYDNWSLC (disulfide 1-12 (inferred)) [G7BP-3NA] | binds | – | – | – | – | – | –
RSTLCWFEGYDNTFPCKYFR (peptide, not shown: large carriers, disulfide 5-16; also: displayed on phage gene III protein, Tested as a phage clone; also called G7-18 peptide-phage) [G7BP-5 peptide-phage clone] | – | no binding | no binding | no binding | binds | no binding | –
GVSNCVFWGYANDWLCSDYS (disulfide 5-16 (inferred), Free synthetic peptide, not on phage; also called G7BP-4) [G7-8 free synthetic peptide] | – | – | – | – | – | – | binding result [11]: binds; binding result [12]: no binding
GVSNCVFWGYANDWLCSDYS (peptide, not shown: large carriers, disulfide 5-16; also: displayed on phage gene III protein, Tested as a phage clone displaying the peptide on the gene III protein; also called G7-8 peptide-phage) [G7BP-4 peptide-phage clone] | – | no binding | no binding | no binding | binds | no binding | –
RSTLCWFEGYDNTFPCKYFR (disulfide 5-16 (inferred), Free synthetic peptide, not on phage; also called G7BP-5; G7-18 (disulfide)) [G7-18 free synthetic peptide] | – | – | – | – | – | – | binding result [11]: binds; binding result [12]: no binding
CNEELYENCGGC (disulfide (positions not given here); not fully specified) [G7BP-6NA] | binds | – | – | – | – | – | –
